Data: patent EP1052288A1, “Complex for transferring an anionic substance of interest into a cell” (TRANSGENE S.A., priority 1999, dated 2000)
Ends that are not written are not given here.

Columns and labels:
[1] = Sizes of complexes by quasi-elastic light scattering; format: physicochemical; conditions: complexes (-/+) [1:4], 6 µg DNA (pTG11033), 500 µl; for Sizes in ultrafiltrated serum: ultrafiltrated foetal calf serum
Protocol: Sizes of complexes prepared with a plasmid DNA (PTG11033; see EP-A 890 32, 9.6 kb) and the C1qA (4-26) peptide (see Table I) were evaluated. Complexes were formulated either in 5% glucose or in ultrafiltrated foetal calf serum (YM10 Amicon membrane). Formulation was made in 500 µl buffer, with 6 µg DNA and the quantity of peptide necessary to form a [1:4], [-:+] complex. As a control a polylysine SV40 NLS peptide was used. […] When oxidized, the dimerized C1qA peptide could form even smaller complexes, whatever the formulation buffer used. The reasonable sizes obtained in ultrafiltrated serum with C1qA peptides is an advantage for the use of this peptide rather than polylysine derivatives.
Complexes (-/+):[1:4], 6 µg DNA, 500 µl.
Size measures: quasi-elastic light scattering, COULTER N4+. [formula] [formula] [formula] [formula]

plasmid pTG11033 = experiment: Gel retardation assay (agarose gel electrophoresis); format: binding
Protocol: Gel retardation assay was performed with C1qA (4-26) in several buffers: PBS, TBS, 5% glucose, or ultrafiltrated serum (YM10 Amicon membrane). DNA and peptides have been mixed at charge ratios [-/+] of [1:4], [1:1] and [1:0.2].

Substance | Sizes in 5% glucose [1] | Sizes in ultrafiltrated serum [1] | retardation in DNA (plasmid pTG11033; charge ratio [-/+] [1:1]) | association of DNA to the peptides (plasmid pTG11033; charge ratio [-/+] [1:4], PBS, TBS, 5% glucose or ultrafiltrated serum, absence of visible band with ethidium bromide)
SP-1052 oxidized: When oxidized, the dimerized C1qA peptide (CRAPDGKKGEAGRPGRRGRPGLK; also: oxidized disulfide dimer; UniProt P02745 26-48, looked up, fragment) | 200 nm | 300 nm |  | 
SP-1052: C1qA (4-26) peptide, complexed with plasmid DNA (CRAPDGKKGEAGRPGRRGRPGLK; also: complexed with plasmid DNA; UniProt P02745 26-48, looked up, fragment) | 1µm | 300-500 nm | significative retardation | strong association of DNA to the peptides
